Laboratory results reported in patent US20150119475.

Target: Snail protein (SNAI1/Snail, expressed as GST fusion in E. coli, GST moiety cleaved with thrombin) (UniProt O95863)
Sequence (O95863 whole entry, the tested form may be a part): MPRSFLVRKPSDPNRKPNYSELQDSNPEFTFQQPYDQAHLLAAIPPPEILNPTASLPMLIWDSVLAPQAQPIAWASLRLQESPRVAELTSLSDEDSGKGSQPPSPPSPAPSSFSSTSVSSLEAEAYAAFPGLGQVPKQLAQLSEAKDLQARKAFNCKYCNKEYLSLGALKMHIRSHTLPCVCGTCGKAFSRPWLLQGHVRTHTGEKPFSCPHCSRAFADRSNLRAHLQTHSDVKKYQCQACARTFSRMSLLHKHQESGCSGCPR

recombinant Akt3 (ProQinase GmbH) was tested, and the “in vitro kinase assay with 32P-ATP, detected by autoradiography” value was “Akt1 and Akt3 kinases are able to directly phosphorylate Snail protein”.
